Residue numbers refer to the chain shown, from its start.
Experiments:
SARS-CoV-2 spike protein = SARS-CoV-2 spike protein (SARS-CoV-2, UniProt P0DTC2 14-1208)
[1] = biological target: SARS-CoV-2 spike (S) protein (SARS-CoV-2, UniProt P0DTC2 14-1208)

B1: antibody 402 (antibody, V domains shown)
VH: QVQLVQSGAEVKKPGASVKVSCKVSGYTLTELSMHWVRQAPGKGLEWMGGFDPEDVETIYAQKFQGRVTMTEDTSTDTAYMELSSLRSEDTAVYYCATGVAVVGTSHSYYYYYGMDVWGQGTTVTVSS
VL: DIQMTQSPSSLSASVGDRVTITCRASQGISNYLAWYQQKPGKVPKLLIYAASTLQSGVPSRFSGSGSGTDFTLTISSLQPEDVATYYCQKYNSAPFTFGPGTKVDIK
SARS-CoV-2 spike protein
  Kd: 2.14 nM
  koff: 6.48e-05 s⁻¹
  kon: 30400 M⁻¹ s⁻¹

B2: antibody 359 (antibody, V domains shown)
VH: QVQLVESGGGVVQPGRSLRLSCAASGFTFSSYAMHWVRQAPGKGLEWVAVISYDGSNKYYADSVKGRFTISRDNSKNTLYLQMNSLRAEDTAVYYCAYSGNYWYFDLWGRGTLVTVSS
VL: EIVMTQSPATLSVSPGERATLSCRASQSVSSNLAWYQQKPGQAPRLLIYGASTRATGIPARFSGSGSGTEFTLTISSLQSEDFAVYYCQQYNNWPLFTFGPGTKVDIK
[1]
  Kd: 0.441 nM
  koff: 6.67e-05 s⁻¹
  kon: 151000 M⁻¹ s⁻¹

B3: antibody 399 (antibody, V domains shown)
VH: QVQLVQSGAEVKKPGASVKVSCKASGYTFTSYGISWVRQAPGQGLEWMGWISAYNGNTNYAQKLQGRVTMTTDTSTSTAYMELRSLRSDDTAVYYCARDSGYDWAGGHYYYYGMDVWGQGTTVTVSS
VL: QSALTQPASVSGSPGQSITISCTGTSSDVGGYNYVSWYQQHPGKAPKLMIYEVSNRPSGVSNRFSGSKSGNTASLTISGLQAEDEADYYCSSYTSSSTLVVFGGGTKLTVL
SARS-CoV-2 spike protein
  Kd: ≤ 0.315 nM
  koff: ≤ 1e-05 s⁻¹
  kon: 31700 M⁻¹ s⁻¹

B4: antibody 433 (antibody, V domains shown)
VH: QVQLVESGGGVVQPGRSLRLSCAASGFTFSSYAMHWVRQAPGKGLEWVAVISYDGSNKYYADSVKGRFTISRDNSKNTLYLQMNSLRAEDTAVYYCAKDYEVVIAIGGPGAFDYWGQGTLVTVSS
VL: SYVLTQPPSVSVAPGKTARITCGGNNIGSKSVHWYQQKPGQAPVLVIYYDSDRPSGIPERFSGSNSGNTATLTISRVEAGDEADYYCQVWDSSSDHVVFGGGTKLTVL
SARS-CoV-2 spike protein
  Kd: 2.8 nM
  koff: 0.000349 s⁻¹
  kon: 125000 M⁻¹ s⁻¹

B5: antibody 451 (antibody, V domains shown)
VH: EVQLVESGGGLVQPGGSLRLSCAASGFTFSTYWMSWVRQAPGKGLEWVANIKQDGSEKYYVDSVKGRFTISRDNAKNSLYLQMNSLRAEDTAVYYCARLGGSSWYFDYWGQGTLVTVSS
VL: not shown
SARS-CoV-2 spike protein
  Kd: 0.429 nM
  koff: 6.02e-05 s⁻¹
  kon: 140000 M⁻¹ s⁻¹

B6: antibody 415 (antibody, V domains shown)
VH: QVQLVESGGGVVQPGRSLRLSCAASGFTFSSYAMHWVRQAPGKGLEWVAVISYDGSNKYYADSVKGRFTISRDNSKNTLYLQMNSLRAEDTAVYYCAKTRGGSYFDAFDIWGQGTMVTVSS
VL: not shown
SARS-CoV-2 spike protein
  Kd: ≤ 0.0125 nM
  koff: ≤ 1e-05 s⁻¹
  kon: 802000 M⁻¹ s⁻¹

B7: antibody 360 (antibody, V domains shown)
VH: QVQLVESGGGVVQPGRSLRLSCAASGFTFSSYAMHWVRQAPGKGLEWVAVISYDGSNKYYADSVKGRFTISRDNSKNTLYLQMNSLRAEDTAVYYCAKGKNSGSYFFAFDIWGQGTMVTVSS
VL: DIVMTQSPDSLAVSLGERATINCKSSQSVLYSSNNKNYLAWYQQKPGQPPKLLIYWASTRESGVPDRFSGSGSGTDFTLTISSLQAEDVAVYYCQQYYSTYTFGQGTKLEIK
[1]
  Kd: 1.4 nM
  koff: 0.000145 s⁻¹
  kon: 104000 M⁻¹ s⁻¹

B8: antibody 381 (antibody, V domains shown)
VH: QVQLVESGGGVVQPGRSLRLSCAASGFTFSSYAMHWVRQAPGKGLEWVAVISYDGSNKYYADSVKGRFTISRDNSKNTLYLQMNSLRAEDTAVYYCARDRQYYDILTGYYLPTSEYYFDYWGQGTLVTVSS
VL: DIQMTQSPSSVSASVGDRVTITCRASQGISSWLAWYQQKPGKAPKLLIYAASSLQSGVPSRFSGSGSGTDFTLTISSLQPEDFATYYCQQANSFPPTFGGGTKVEIK
[1]
  Kd: 6.66 nM
  koff: 0.000207 s⁻¹
  kon: 31100 M⁻¹ s⁻¹

B9: antibody 394 (antibody, V domains shown)
VH: QVQLVQSGAEVKKPGASVKVSCKASGYTFTGYYMHWVRQAPGQGLEWMGWINPNNGGTNSAQKFQGRVTMTRDTSISTAYMELNRLRSDDTAVYYCARDITTTAGTDYYYGMDVWGQGTTVTVSS
VL: SYELTQPPSVSVSPGQTARITCSGDALPKQYAYWYQQKPGQAPVLVICKDSERPSGIPERFSGSSSGTTVTLTISGVQAEDEADYYCQSADSSGTYIVFGTGTKVTVL
SARS-CoV-2 spike protein
  Kd: 1.32 nM
  koff: 3.52e-05 s⁻¹
  kon: 26600 M⁻¹ s⁻¹

B10: antibody 440 (antibody, V domains shown)
VH: EVQLLESGGGLVQPGGSLRLSCAASGFTFSSYAMSWVRQAPGKGLEWVSAISGSGVNTYHADSVKGRFTISRDNSRNTLYLQMSSLTAEDTAAYYCAKDFEAASGAYYYYGMDVWGQGTTVTVSS
VL: B9 VL with K29D, L45V, C48Y, S51R, S65N, G94A, I97V, T101G, V105L
SARS-CoV-2 spike protein
  Kd: 7.93 nM
  koff: 0.000291 s⁻¹
  kon: 36700 M⁻¹ s⁻¹

B11: antibody 397 (antibody, V domains shown)
VH: QVQLVESGGGVVQPGRSLRLSCAASGFTFSSYGMHWVRQAPGKGLESVAVISYDGSNKYYADSVKGRFTISRDNSKNTLYLQMNSLRAEDTAVYYCAKEGQWELQGNAFDIWGQGTMVTVSS
VL: B9 VL with C48Y, A90G, I97R, T101G, V105L
SARS-CoV-2 spike protein
  Kd: ≤ 0.0169 nM
  koff: ≤ 1e-05 s⁻¹
  kon: 591000 M⁻¹ s⁻¹

B12: antibody 441 (antibody, V domains shown)
VH: EVQLVESGGGVVRPGGSLRLSCAASGFTFGDYGMSWVRQAPGKGLEWVSGINWNGGSTGYADSVKGRFTISRDNAKNSLYLQMNSLRAEDTALYYCASDLVRGVIGFDYWGQGTLVTVSS
VL: B9 VL with C48Y, T95I, Y96T, I97G, T101G, V105L
SARS-CoV-2 spike protein
  Kd: 3.46 nM
  koff: 0.000318 s⁻¹
  kon: 91900 M⁻¹ s⁻¹

B13: antibody 448 (antibody, V domains shown)
VH: QVQLVQSGAEVKKPGASVKVSCKASGYTFTSYGISWVRQAPGQGLEWMGWISAYNGNTNYAQKLQGRVTMTTDTSTSTAYMELRSLRSDDTAVYYCAIELLEGFYYYYGMDVWGQGTTVTVSS
VL: SYELTQPPSVSVSPGQTARITCSGDALPKQYAYWYQQKPGQAPVLVIYKDSERPSGIPERFSGSSSGTTVTLTISGVQAEDEADYYCQSADSSGTYPYVVFGGGTKLTVL
SARS-CoV-2 spike protein
  Kd: 37.5 nM
  koff: 0.000692 s⁻¹
  kon: 18500 M⁻¹ s⁻¹

B14: antibody 393 (antibody, V domains shown)
VH: QVQLVESGGGVVQPGRSLRLSCAASGFTFSSYAMHWVRQAPGQGLEWVAVISYDGSNKYYADSVKGRFTISRDNSKNTLYLQMNSLRAEDTAVYYCARAGSGSRHYYGMDVWGQGTTVTVSS
VL: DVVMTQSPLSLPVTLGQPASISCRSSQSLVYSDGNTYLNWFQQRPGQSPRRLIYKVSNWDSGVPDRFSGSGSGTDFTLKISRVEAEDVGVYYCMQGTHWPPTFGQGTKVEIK
SARS-CoV-2 spike protein
  Kd: 0.313 nM
  koff: 2.95e-05 s⁻¹
  kon: 94100 M⁻¹ s⁻¹

B15: antibody 453 (antibody, V domains shown)
VH: QVQLVESGGGVVQPGRSLRLSCAASGFTFSSYAMYWVRQAPGKGLEWVAVISYDGSNKYYADSVKGRFTISRDNSKNTLYLQMNSLRAEDTAVYYCARDRPHYYGSGRKILNLYGMDVWGQGTTVTVSS
VL: DIQLTQSPSFLSASVGDRVTITCRASQGISSYLAWYQQKPGKAPKLLIYAASTLQSGVPSSFSGSGSGTEFTLTISSLQPEDFATYYCQQLNSYPPFTFGPGTKVDIK
SARS-CoV-2 spike protein
  Kd: 1.61 nM
  koff: 0.000154 s⁻¹
  kon: 95600 M⁻¹ s⁻¹

B16: antibody 387 (antibody, V domains shown)
VH: QVQLVESGGGVVQPGRSLRLSCAASGFTFSSYGMHWVRQAPGKGLEWVAVISYDGSNKYYADSVKGRFTISRDNSKNTLYLQMNSLRAEDTAVYYCAKDDTKNYGDLDIDYWGQGTLVTVSS
VL: SYELTQPSSVSVSPGQTARITCSGDVLAKKYARWFQQKPGQAPVLVIYKDSERPSGIPERFSGSSSGTTVTLTISGAQVEDEADYYCYSAADNNLGVFGGGTKLTVL
[1]
  Kd: 37.4 nM
  koff: 0.000808 s⁻¹
  kon: 21600 M⁻¹ s⁻¹

B17: antibody 400 (antibody, V domains shown)
VH: QVQLVESGGGVVQPGRSLRLSCAASGFTFSSYGMHWVRQAPGKGLEWVAVISYDGSNKYYADSVKGRFTISRDNSKNTLYLQMNSLRAEDTAVYYCAKAIDILTGYGPGGMDVWGQGTTVTVSS
VL: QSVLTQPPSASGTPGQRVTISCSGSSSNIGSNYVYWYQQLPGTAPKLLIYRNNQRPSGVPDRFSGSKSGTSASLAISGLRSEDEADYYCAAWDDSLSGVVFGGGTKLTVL
SARS-CoV-2 spike protein
  Kd: 1.28 nM
  koff: 0.000624 s⁻¹
  kon: 488000 M⁻¹ s⁻¹

B18: antibody 410 (antibody, V domains shown)
VH: QVQLVQSGAEVKKPGASVKVSCKASGYTFTSYGISWVRQAPGQGLEWMGWISAYNGNTNYAQKLQGRVTMTTDTSTSTAYMELRSLRSDDTAVYYCARGRITIFGVEYYYGMDVWGQGTTVTVSS
VL: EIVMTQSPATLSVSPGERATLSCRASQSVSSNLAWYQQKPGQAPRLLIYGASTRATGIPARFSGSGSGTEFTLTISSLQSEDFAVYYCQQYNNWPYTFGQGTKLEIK
SARS-CoV-2 spike protein
  Kd: 2.05 nM
  koff: 0.000329 s⁻¹
  kon: 161000 M⁻¹ s⁻¹

B19: antibody 368 (antibody, V domains shown)
V domain 1: QITLKESGPTLVKPTETLTLTCAFSGFSLTKTGEAAGWIRQAPGRALEWVTVIFWDDDKRYSPSLQNRLTVTKDTSKNVVVLTMTNVDPVDTATYFCWAMGGPGKEFFGQGTRVAVSS
V domain 2: QSVLTQPPSVSGAPGQRVTVSCTGTSSSIGPYSDVHWYQHIPGKAPRLLIFGTSNRPSGVPARFSGSKSGSSASLVIAGLQAEDEADYYCQSYDSSLGEIYVFGTGTTVTVL
[1]
  Kd: 12.7 nM
  koff: 0.000486 s⁻¹
  kon: 38100 M⁻¹ s⁻¹

B20: antibody 391 (antibody, V domains shown)
VH: EVQLVESGGGLVQPGGSLRLSCAASGFTFSSYWMHWVRQAPGKGLVWVSRINSDGSSTSYADSVKGRFTISRDNAKNTLYLQMNSLRAEDTAVYYCALGPLDIVGSYYYYGMDVWGQGTTVTVSS
VL: NFMLTQPHSVSESPGKTVTISCTGSSGSIASNYVQWYQQRPGSAPTTVIYEDNQRPSGVPDRFSGSIDSSSNSASLTISGLKTEDEADYYCQSYDSSNQDVVFGGGTKLTVL
SARS-CoV-2 spike protein
  Kd: ≤ 0.37 nM
  koff: ≤ 1e-05 s⁻¹
  kon: 27000 M⁻¹ s⁻¹

B21: antibody 455 (antibody, V domains shown)
VH: QVQLVQSGAEVKKPGSSVKVSCKASGGTFSSYAISWVRQAPGQGLEWMGRIIPILGIANYAQKFQGRVTITADKSTSTAYMELSSLRSEDTAVYYCARDSIVVPAAIISGYYYYGMDVWGQGTTVTVSS
VL: QSVLTQPPSVSAAPGQKVTISCSGSSSNIGNNYVSWYQQLPGTAPKLLIYDNNKRPSGIPDRFSGSKSGTSATLGITGLQTGDEADYYCGTWDSSLSAGRVFGGGTKLTVL
SARS-CoV-2 spike protein
  Kd: 0.866 nM
  koff: 9.23e-05 s⁻¹
  kon: 107000 M⁻¹ s⁻¹

B22: antibody 449 (antibody, V domains shown)
VH: not shown
VL: QSALTQPASVSGSPGQSITISCTGTSSDVGGYNYVSWYQQHPGKAPKLMIYEVSNRPSGVSNRFSGSKSGNTASLTISGLQAEDEADYYCSSYTSSSTVVFGGGTKLTVL
SARS-CoV-2 spike protein
  Kd: 9.17 nM
  koff: 0.000526 s⁻¹
  kon: 57400 M⁻¹ s⁻¹
